For test [1], the target named is T1, human IL-11 (Invigate, e.g., lot #C121021-19) (human, UniProt P20809 22-199).
T1 sequence: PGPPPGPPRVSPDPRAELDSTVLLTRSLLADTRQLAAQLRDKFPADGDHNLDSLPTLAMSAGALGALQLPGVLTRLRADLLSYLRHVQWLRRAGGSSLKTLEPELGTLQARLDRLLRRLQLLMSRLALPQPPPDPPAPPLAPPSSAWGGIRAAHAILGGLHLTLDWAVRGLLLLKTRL
In words: cell-based or functional assay.

Test [2] concerns the target T2, murine IL-11 (Invigate, e.g., lot #C210819-09) (mouse, UniProt P47873 22-199).
T2 sequence: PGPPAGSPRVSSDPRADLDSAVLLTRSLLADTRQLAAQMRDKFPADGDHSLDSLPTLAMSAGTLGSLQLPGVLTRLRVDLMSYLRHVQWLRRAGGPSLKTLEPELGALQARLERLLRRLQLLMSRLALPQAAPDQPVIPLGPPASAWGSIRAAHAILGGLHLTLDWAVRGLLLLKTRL
The test is described as follows: cell-based or functional assay.

The target in test [3] is T1, human IL-11 (Invigate, e.g., lot …). In words: SPR, Biacore T200, 25 C; antibody captured via anti-mouse Fc, IL-11 as analyte, 1:1 Langmuir fit. As to the method:
(§1) Antibodies were captured via anti-mouse Fc IgGs (“Mouse antibody capture kit, Order No. BR100383, Cytiva) covalently amine coupled to a Series S CM5 sensor chip (Cytiva). The amine coupling was carried out according to the manufacturer's instructions using 1-ethyl-3-(3-dimethylaminopropyl) carbodiimide hydrochloride (EDC), N-hydroxysuccinimide (NHS) and ethanolamine HCl, pH 8.5 (“Amine Coupling Kit” BR-1000-50, Cytiva.). Human IL-11 (Invigate, e.g., lot #C121021-19), and murine IL-11 (Invigate, e.g., lot #C210819-09) were used as analytes. […] Based on that experiment an IL-11 concentration range was chosen to optimally determine kinetics and affinity of anti-IL-11 antibodies in multicycle kinetics mode. The sensor surface was regenerated with glycine pH 1.7 after each antigen injection. Obtained sensorgrams were double referenced (subtraction of reference flow cell signal and buffer injection) and were fitted to a 1:1 Langmuir binding model to derive kinetic data using the Biacore T200 Evaluation software or the Biacore Insight software.
For orientation: Surface plasmon resonance follows binding to a sensor surface in real time, without labels.

Test [4] deals with T2, murine IL-11 (Invigate, e.g., lot …). The test is described as above. As to the method:
as §1

In test [5] the target is T1, human IL-11 (Invigate, e.g., lot …). The test is described as follows: Tri-complex ELISA: antibody titrated against 8 nM human IL-11, 2 nM human gp130-human-Fc and 2 nM murine IL11RA-murine-Fc. The method, then: (§2) In the Tri-complex ELISA format IL-11 antibodies are tested for their ability to inhibit the formation of a complex consisting of murine or human gp130-Fc fusion protein, with murine or human IL-11, and a murine IL11RA-Fc fusion protein. The assay format was adapted according to FIG. 18 (a, b), depending on whether murine or human IL-11 IgG antibodies were tested.
(§3) The assay was performed using High Binding microtiter plates (Greiner, #781077). In a first step, 25 μl of goat anti human IgG (Sigma, #12136), diluted 1:1000 in coating buffer (Candor, #121125) was coated on the plate at 4° C. overnight. Next day, the plate was washed one time with 50 μl PBST and then blocked with 50 μl SmartBlock (Candor, #113125) for one hour at room temperature (RT). […] After three additional washes of the coated and blocked microtiter plate with PBS-T, 25 μl of each mixture were added and the assay plate was incubated for one hour at room temperature. After three additional washes, anti-mouse-gp130 biotinylated antibody (R&D, #BAF468) or anti-human gp130 biotinylated antibody (R&D, #BAF228), both 1:1000 in 10% SmartBlock PBS-T, was added and incubated for 1 hour at RT. After three additional washes, a Streptavidin-Peroxidase conjugate (Sigma, #S5512) 1:1000 in SmartBlock PBS-T was added and incubated for one hour at room temperature. After a final three washes, AmplexRed (Fisher Scientific, A12222), 1/1000 in PBS, 0,003% H₂O₂, was added as substrate and incubated for 15 min at RT in the dark. Then, the fluorescence was measured with a plate reader at 535/595 nm. Signals from dose responses were used to calculate IC50 values using GraphPad Prism software.

For test [6], the target named is T2, murine IL-11 (Invigate, e.g., lot …). The test is described as follows: Tri-complex ELISA: antibody titrated against 8 nM murine IL-11, 2 nM murine gp130-human-Fc and 2 nM murine IL11RA-murine-Fc. As to the method: as §2, §3
(ELISA stands for enzyme-linked immunosorbent assay.)

Test [7] concerns the target T1, human IL-11 (Invigate, e.g., lot …). The test is described as follows: Di-complex ELISA: biotinylated human IL-11 on streptavidin plate, antibody titrated against 2 nM canine IL11RA-human-Fc (competitor). The method, then:
(§4) In the Di-complex ELISA format anti IL-11 antibodies are tested for the ability to interfere with the formation of complexes consisting of immobilized murine IL-11 (Invigate, e.g., lot #C210819-09) or human IL-11 (Invigate, e.g., lot #C121021-19), and murine IL11RA-Fc fusion proteins or canine IL11RA-human-Fc fusion protein (FIG. 17a, b).
(§5) The assay is performed using streptavidin coated microtiter plates (Greiner bio-one, #781997). In a first step, 10 nM biotinylated mouse IL-11 (Invigate, Germany, e.g., lot #C210819-09) or human IL-11 (Invigate, Germany, e.g., lot #C121021-19) is coated in 25 μl PBS on the plate at 4° C. overnight. Next day, the plate is washed three times with 50 μl PBST and then blocked with 50 μl SmartBlock (Candor, #113125) for one hour at room temperature (RT). After additional three washes with PBST, 25 μl of a mixture of the murine anti IL-11 antibody and recombinant canine IL11RA-Fc fusion protein (Sino Biological, #70078-D02H) in PBS-T, 10% Smartblock are added simultaneously to the plate and incubated for one hour at RT. […] After three additional washes with PBS-T, 25 μl anti-human-POD (Sigma, #A0170) in PBS-T, 10% Smartblock is added and incubated for 1 hour at RT. After a final three washes with PBS-T, 25 μl AmplexRed (Fisher Scientific, A12222), 1/1000 in PBS, 0,003% H₂O₂, is added as substrate and incubated for 15 min at RT in the dark. Then, the fluorescence is measured with a plate reader at 535/595 nm. Signals from dose responses were used to calculate IC50 values (GraphPad Prism). Efficacy was calculated as [(signal measured at lowest antibody concentration−signal measured at the highest antibody concentration)×100] divided by (signal measured at lowest antibody concentration−signal measured in the absence of IL11Ra).

Test [8] addresses T2, murine IL-11 (Invigate, e.g., lot …). The test is described as follows: Di-complex ELISA: biotinylated murine IL-11 on streptavidin plate, antibody titrated against 2 nM canine IL11RA-human-Fc (competitor). As to the method:
as §4, §5

B1: TPP-18068 (antibody, mouse IgG1)
heavy: EVQLLESGGGLVQPGGSLRLSCAASGFTFSSYGMHWVRQAPGKGLEWVSVISYDGSYKYYADSVKGRFTISRDNSKNTLYLQMNSLRAEDTAVYYCAAGVPDYWGQGTLVTVSSAKTTPPSVYPLAPGSAAQTNSMVTLGCLVKGYFPEPVTVTWNSGSLSSGVHTFPAVLQSDLYTLSSSVTVPSSTWPSETVTCNVAHPASSTKVDKKIVPRDCGCKPCICTVPEVSSVFIFPPKPKDVLTITLTPKVTCVVVDISKDDPEVQFSWFVDDVEVHTAQTQPREEQFNSTFRSVSELPIMHQDWLNGKEFKCRVNSAAFPAPIEKTISKTKGRPKAPQVYTIPPPKEQMAKDKVSLTCMITDFFPEDITVEWQWNGQPAENYKNTQPIMDTDGSYFVYSKLNVQKSNWEAGNTFTCSVLHEGLHNHHTEKSLSHSPGK
light: QSVLTQPPSASGTPGQRVTISCTGSSSNIGAGYDVHWYQQLPGTAPKLLIYSNNERPSGVPDRFSGSKSGTSASLAISGLRSEDEADYYCAAWDDSLNGPVFGGGTKLTVLGQPKSSPSVTLFPPSSEELETNKATLVCTITDFYPGVVTVDWKVDGTPVTQGMETTQPSKQSNNKYMASSYLTLTARAWERHSSYSCQVTHEGHTVEKSLSRADCS
notes: mIgG1, Lambda
As for B1, the “Efficacy (%), Stat3 reporter gene assay, human IL11RA, 0.78 nM hIL-11” value in test [1] worked out at 20.7%. Further, in test [1], the “IC50 [M], Stat3 reporter gene assay, HEK 293F transfected with human IL11RA, 0.78 nM hIL-11” value came to 4.83e-09 M. In addition, the “Efficacy (%), Stat3 reporter gene assay, mouse Il11ra, 3.13 nM mIL-11” value in test [2] stood at 84.1%. In addition, the “IC50 [M], Stat3 reporter gene assay, HEK 293F transfected with mouse Il11ra, 3.13 nM mIL-11” value in test [2] was found to be 2.67e-09 M. Besides, the Kd (as a rule, the free concentration of one partner at which half of the binding sites on the other are occupied at equilibrium, for simple one-to-one binding) in test [3] is 48 nM; in test [4], 0.72 nM. The “Efficacy (%)” value in test [5] is 7.3%; in test [6], 37.1%; in test [7] it was 19.6%; in test [8] it was 72.7%. In addition, the values for the IC50 in test [6] and in test [8] were 66 nM and 2.5 nM, respectively.

B2: TPP-18063 (antibody, mouse IgG1, V domains shown)
VH: EVQLLESGGGLVQPGGSLRLSCAASGFTFSDYYMSWIRQAPGKGLEWVSGINWNGGSTGYADSVKGRFTISRDNSKNTLYLQMNSLRAEDTAVYYCATWDGPFDYWGQGTLVTVSS
VL: QSVLTQPPSASGTPGQRVTISCTGSSSNIGAGYDVHWYQQLPGTAPKLLIYYDDLLPSGVPDRFSGSKSGTSASLAISGLRSEDEADYYCQSYDSSLGGSVFGGGTKLTVLG
notes: mIgG1, Lambda
B2: the “Efficacy (%), Stat3 reporter gene assay, human IL11RA, 0.78 nM hIL-11” value in test [1] worked out at 54.3%. For the same molecule, the “IC50 [M], Stat3 reporter gene assay, HEK 293F transfected with human IL11RA, 0.78 nM hIL-11” value in test [1] was 1.1e-07 M. The “Efficacy (%), Stat3 reporter gene assay, mouse Il11ra, 3.13 nM mIL-11” value in test [2] was 60%. Also, the “IC50 [M], Stat3 reporter gene assay, HEK 293F transfected with mouse Il11ra, 3.13 nM mIL-11” value in test [2] was 9.5e-08 M. For the same molecule, the Kd in test [3] is 53 nM; in test [4], 10 nM. Also, the “Efficacy (%)” value in test [5] came out at 60.6%; in test [6], 36.3%; in test [7] it was 42%; in test [8], 68.9%. The IC50 (usually the midpoint of a concentration-inhibition curve) in test [5] was found to be 92 nM; in test [6], 170 nM; in test [7] it was 54 nM; in test [8], 12 nM.

The values are drawn from patent US20240317847A1 (Bayer, published 2024).
